Laboratory results as given in patent US20110027273A1.

Molecular target: mouse CD22 (mouse) (UniProt P35329)
Test: cell-based or functional assay

Sequence of UniProt P35329 (P35329 22-868): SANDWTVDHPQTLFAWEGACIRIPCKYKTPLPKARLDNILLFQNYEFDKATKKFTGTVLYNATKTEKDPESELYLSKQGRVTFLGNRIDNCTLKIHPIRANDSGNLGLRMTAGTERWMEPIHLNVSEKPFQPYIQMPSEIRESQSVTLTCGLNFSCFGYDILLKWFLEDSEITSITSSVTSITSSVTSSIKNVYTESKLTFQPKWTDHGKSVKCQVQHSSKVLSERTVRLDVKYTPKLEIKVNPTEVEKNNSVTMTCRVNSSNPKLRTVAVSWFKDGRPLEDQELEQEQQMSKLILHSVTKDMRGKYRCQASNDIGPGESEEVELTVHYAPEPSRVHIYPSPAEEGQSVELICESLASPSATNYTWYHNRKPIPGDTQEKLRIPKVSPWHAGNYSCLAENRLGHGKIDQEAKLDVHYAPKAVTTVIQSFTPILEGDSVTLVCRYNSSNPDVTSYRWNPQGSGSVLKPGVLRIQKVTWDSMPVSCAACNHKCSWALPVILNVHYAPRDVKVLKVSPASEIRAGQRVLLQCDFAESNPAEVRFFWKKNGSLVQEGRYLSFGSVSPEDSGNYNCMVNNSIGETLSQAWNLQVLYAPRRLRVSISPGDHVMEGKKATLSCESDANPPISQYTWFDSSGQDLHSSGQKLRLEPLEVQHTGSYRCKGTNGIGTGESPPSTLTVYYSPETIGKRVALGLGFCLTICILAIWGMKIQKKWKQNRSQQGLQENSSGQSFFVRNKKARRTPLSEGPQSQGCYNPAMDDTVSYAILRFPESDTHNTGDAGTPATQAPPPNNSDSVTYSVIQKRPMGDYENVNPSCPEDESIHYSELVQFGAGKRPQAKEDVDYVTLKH

IC50, proliferation of LPS-stimulated primary mouse B cells (3H thymidine, 48 hr): 0.03 µg/mL
selectivity against the control immunoconjugate J110/cal (IC50 3 µg/ml), B cell proliferation: 100 fold
Substance: CD22/cal (Cy34.1 mAb conjugated to N-acetyl gamma calicheamicin dimethyl acid) (antibody)
IC50, in vitro cytotoxicity (proliferation of LPS-stimulated primary B cells, 48 hours): 0.08 µg/mL
